# Measurements: the RNAGym collection of RNA variant scans (doi:10.1073/pnas.2313332121)
# B1: TPR t1 (parent)
# chain: GACCAAUCUGCCCUCAGAGCUCGAGAACAUCUUCGGAUGCAGAGGAGGCAGGCUUCGGUGGCGCGAUAGCGCCAACGUCCUCAACCUCCAAUGCAUCCCACCACAUGAUGAUGCCUGAAGAGCCUUGGUUUUUUG
# Variants of: B1
# Test: polymerase ribozyme fitness, log enrichment relative to wild type (log ratio); higher = more active; in vitro selection for triplet polymerase activity
# Method in brief: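 Fitness measures genotype enrichment against wild-type enrichment on a logarithmic scale, with inverse-variance-weighted averaging of replicates. The logarithm is base 2, and genotypes were kept only with ≥10 input reads and ≥1 read per output in Illumina sequencing. The sequenced libraries came from one triplicate in vitro selection round, including frozen incubation at −7 °C, of PCR-built, transcribed mutant libraries of each subunit of a heterodimeric triplet polymerase ribozyme.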
row,Variant,polymerase ribozyme fitness (log ratio)
1,G19U U55G C70U U87G A95C U112C C114A,-0.702
2,G36A G69A C73A G122A,-4.15
3,A6U U106G G113C,-3.9
4,C12A U126C,-2.01
5,U9C C15A G44U G60C A91U,-1.82
6,A29U C115A,-1.59
7,C3U U9A A27G G42U A100U U133A,-3.45
8,C73A A91U,-0.926
9,G44A C53A C56A,-1.42
10,A27C C89U,-4.35
11,G42U C56G C73U G110A,-4.56
12,C13U G110U,-1.02
13,C11G A111G G120C G127U,0.661
14,C3U C11G G63C C86U U109G U131A,-5.05
15,C8A A43C G44A C53A C86U G93U,-2.53
16,A37U C70A,-1.11
17,C13A G36C G60U A66U A95C,-6.15
18,C114U G120A C123U,-1.64
19,A16U U78C,-2.22
20,U9G U87G,0.583
21,C49U U87A,-0.416
22,G51U C76A U106A,-2
23,A84C U116C,0.658
24,G10U C114U,-2.39

row,Variant,polymerase ribozyme fitness (log ratio)
1,G51U U67A A75U C88A U106A U112C,-6.98
2,U129C G135U,-0.0345
3,A41G C73G U87C C104U C115A C123G G135A,0.00105
4,C11G C13G C56U G93A,-0.689
5,A41G G113A C124A,-0.366
6,U55G C56A A83G,-1.72
7,A5U U9A G48U C49G C101A,-1.73
8,C3U C13G G48U A50U U92C G120A U131A,-3.5
9,A84U C97A,-5.72
10,U38A G48U G110A,-3.21
11,C11G G48U,-1.46
12,A18U G57U C88U C101G,-6.08
13,C28U G39A G45A G120A,-2.28
14,U7G G10A C49U U112G,-2.64
15,A16U C73G,-2.59
16,C22A C70U G77C,-6.73
17,G61U G113C,-1.82
18,C4U C13A A46C A50G C72U,-3.05
19,U21G A121U,0.0323
20,A29G G71U G110A,-2.82
21,C70U U96A G120A,-0.134
22,C70A U112A G113A,-2.47
23,G52A C101U,0.00367
24,G61A C88G C104U C123G,1.29

row,Variant,polymerase ribozyme fitness (log ratio)
1,A6U C13G G52A A111C U116G A121C,-1.83
2,A90C A91C G110A,-4.36
3,G69A C82U U112G,-4.1
4,G39A C124U,1.26
5,A37C A118U,0.469
6,A26G C28G,-2.83
7,A84G,-0.482
8,C11G G17A C124U,-3.84
9,C72A C82A U87A,-0.837
10,G39A C94U,-0.565
11,C11G U21A A24U G60U C94G G120A,-7.06
12,G57U C72G C115A U132C G135C,-4.51
13,C20U G52A,-0.737
14,G44U U59G,-0.461
15,C4U C13U G42A G69U G77A A90U C104U,-0.867
16,C40U A95U G117C A121C,-5.49
17,A43G G61A U78C G117U,-4.59
18,G10U C28U C53U C73U U96C C104A G110A,0.843
19,A2U C13U C85G U131G,-3.98
20,G63C A75U U87A,-0.774
21,C102U G110U,-4.26
22,G65U G120U,-5.78
23,C13U G93A C114G,-2.39
24,C3U C13U,-0.225

row,Variant,polymerase ribozyme fitness (log ratio)
1,A50G C88A C97G,-4.42
2,A6U C88A,-0.42
3,A43U C114G G117C U126A,-5.06
4,C3G C56A C86G C104A,-5.13
5,C3U C8G A29G,-1.43
6,G69U C99G,-6.24
7,A6U G44U C53U G77U G110A,-3.2
8,G61C A66U,-0.911
9,G10A C13A C49G A84C,-0.63
10,C56U G71A,-2.84
11,A16C C56U,-2
12,G77U U81G,-3.24
13,C8G C15U C89G G93A C101U G113C C114U G127C,-3.86
14,G17U C34G A68U C72G C85A C123A,-7.76
15,G10U G17U G45A C85U C123G,-0.92
16,A6U C22A,-4.95
17,A16U G117C G120A,-4.52
18,C49U G58A U125A,-1.44
19,A83G G93A G120U,-1.68
20,U7A A46U A50U G60A G69U U96C,-1.72
21,C15G C101U,-2.56
22,U96A C114U,-3.4
23,C13U G69U G93A U126C,-0.75
24,C4U A90G,-0.325

row,Variant,polymerase ribozyme fitness (log ratio)
1,A43U G47C U92C G93C A121G,-0.371
2,A2G C56G,-1.69
3,G25U C56A,-4.45
4,A2C A37U U78G G120U,-1.6
5,G71C U96G G120U,-1.37
6,U38G C64U C80G U131C,-6.8
7,C8A C62A U130G,-0.621
8,C94A A105U A121C,-2.21
9,G61U U129A,-1.21
10,A91G C97A A118U,-5.26
11,C34U G39C A50G,-5.57
12,C53A G58A C89G C102U A103U C123G,-5.91
13,G44A G51C,-5.22
14,C70G C72U,-2.61
15,G36A G45C C114A,-3.75
16,G10A G63A U130G,-0.867
17,A74C U130A,-0.25
18,C101G C104U,-2.98
19,G51U U55A C73U U78G C98U A105U,-7.15
20,A68U U109A U129G,-7.47
21,A27U C73U,-2.99
22,A27C G48A C86G U92A A103G A105C U109G,-7.14
23,G63A A119U G135U,-1.7
24,A43C G63A,-4.15

row,Variant,polymerase ribozyme fitness (log ratio)
1,C82U U87C G113A,-1.19
2,C56U U112C G117C G120U G127C U132A,-4.94
3,G10U G60U,-0.931
4,G42U C56U C72U C85G G110U,-5.53
5,G63A C115U A119C,-5.84
6,C13G G48U,-2.21
7,C8A G45U C56U A84C A95U,-1.21
8,A24U G39U G60U C115A U129C,-6.65
9,A18G G19A C88U A90G,-1.41
10,C11U G42U G48C C88U G135C,-1.51
11,C28G U92G G117A A121G,-4.67
12,C11U C20A G57A C62U U87A,-4.19
13,A111C G127C,-0.199
14,G45C G47A,-3.52
15,G47A A50U G60C G77A,-5
16,G51A G60U G113A U116A,-7.25
17,C12A U14G,-1.01
18,C72U C99U,-3.71
19,G17A A50U G51U C114G,-6.63
20,A41G G117U,-2.99
21,C4U C49U C98U,-2.14
22,G60C G93U C114A,-2.51
23,G48A C123G,0.439
24,G69U C94U,1.7

row,Variant,polymerase ribozyme fitness (log ratio)
1,C12G U87A,-0.0361
2,A66U G93A A121G,0.349
3,G71A U132A,-0.617
4,C64U C104A,-1.31
5,C73G C124A,1.65
6,C11U C89G,-1.89
7,C86U U112A,0.825
8,C8G C73G A91G,-1.87
9,C15A G61A,-2.09
10,C34U U54A,-4.44
11,C11G G93U C123U,0.981
12,G42C,-1.3
13,A24G U87G,-2.03
14,G71A C82U G110U,-2.94
15,A6C C40U G107U C124U,-4.44
16,G10C G52U C53A,-1.16
17,C31U G36C G61A,-4.05
18,G17A G69U U81A U116A,-2.91
19,G93A A95C A121U,0.651
20,A41U C53G C62G G113C,-6.56
21,C88U C123U,0.953
22,G61A U78G C123A U133A,0.482
23,C12A C115A,-0.819
